Test results taken from patent US20050282743A1, “Molecular interactions in cells” (Arbor Vita Corporation, priority 2001, published 2005).
Blank lines part the entries; values can stand above or below the binder they belong to.

Assays:
Test in all cases: G' assay
[1] = biological target: T1, GST-LIM Protein PDZ domain 1 (Homo sapiens (Human)), Q96HC4
T1 chain: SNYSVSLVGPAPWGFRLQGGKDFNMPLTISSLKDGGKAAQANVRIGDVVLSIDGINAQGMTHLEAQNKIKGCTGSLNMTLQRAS

[2] = biological target: T2, GST-APXL-1 PDZ domain 1 (Homo sapiens (Human)), Q13796
T2 chain: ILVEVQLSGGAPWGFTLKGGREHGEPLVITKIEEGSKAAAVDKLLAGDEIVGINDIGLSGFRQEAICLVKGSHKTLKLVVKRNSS

[3] = biological target: T3, GST-AF6 PDZ domain 1 (Homo sapiens (Human)), P55196
T3 chain: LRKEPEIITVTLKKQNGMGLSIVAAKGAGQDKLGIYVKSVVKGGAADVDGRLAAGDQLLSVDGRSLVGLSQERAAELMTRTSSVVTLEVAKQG

[4] = biological target: T4, GST-ENIGMA PDZ domain 1 (Homo sapiens (Human)), Q9NR12
T4 chain: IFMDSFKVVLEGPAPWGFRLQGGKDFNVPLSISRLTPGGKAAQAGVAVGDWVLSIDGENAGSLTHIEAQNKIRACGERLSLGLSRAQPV

[5] = biological target: T5, GST-LIM-RIL PDZ domain 1 (Homo sapiens (Human)), P50479
T5 chain: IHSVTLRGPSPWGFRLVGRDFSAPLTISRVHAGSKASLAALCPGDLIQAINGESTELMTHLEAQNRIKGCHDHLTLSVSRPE

[6] = biological target: T6, GST-MINT1 PDZ domain 1 (Mus musculus (Mouse)), B2RUJ5
T6 chain: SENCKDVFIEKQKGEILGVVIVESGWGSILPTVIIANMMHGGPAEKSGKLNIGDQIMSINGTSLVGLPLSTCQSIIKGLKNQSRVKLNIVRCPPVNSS

[7] = biological target: T7, GST-AIPC PDZ domain 1 (Homo sapiens (Human)), O15018
T7 chain: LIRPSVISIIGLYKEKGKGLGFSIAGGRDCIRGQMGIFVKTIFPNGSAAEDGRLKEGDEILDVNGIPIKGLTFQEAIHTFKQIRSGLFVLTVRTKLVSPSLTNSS

[8] = biological target: T8, GST-ZO-3 PDZ domain 3 (Homo sapiens (Human)), O95049
T8 chain: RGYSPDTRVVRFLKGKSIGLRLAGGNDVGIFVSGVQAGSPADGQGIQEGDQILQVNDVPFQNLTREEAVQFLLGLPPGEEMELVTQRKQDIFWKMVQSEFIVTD

[9] = biological target: T9, GST-PTPL1 PDZ domain 4 (Homo sapiens (Human)), Q12923
T9 chain: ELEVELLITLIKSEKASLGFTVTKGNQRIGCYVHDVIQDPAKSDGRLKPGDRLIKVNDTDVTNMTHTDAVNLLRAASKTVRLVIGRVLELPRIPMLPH

[10] = biological target: T10, GST-MUPP1 PDZ domain 3 (Homo sapiens (Human)), O75970
T10 chain: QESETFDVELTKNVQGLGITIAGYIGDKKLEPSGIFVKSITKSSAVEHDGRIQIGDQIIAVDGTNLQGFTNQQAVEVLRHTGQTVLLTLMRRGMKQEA

[11] = biological target: T11, GST-FLJ 10324 PDZ domain 1 [GST: P08515]
T11 chain: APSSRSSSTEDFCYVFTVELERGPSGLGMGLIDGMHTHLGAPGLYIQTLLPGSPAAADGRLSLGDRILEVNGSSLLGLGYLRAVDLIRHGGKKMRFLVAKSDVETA

[12] = biological target: T12, GST-HEMBA 1003117 PDZ domain 1 (Homo sapiens (Human)), Q96JH8
T12 chain: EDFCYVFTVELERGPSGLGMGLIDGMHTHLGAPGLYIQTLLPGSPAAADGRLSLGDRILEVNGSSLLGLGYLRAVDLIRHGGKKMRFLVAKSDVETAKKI

[13] = biological target: T13, GST-DVL2 PDZ domain 1 (Homo sapiens (Human)), O14641
T13 chain: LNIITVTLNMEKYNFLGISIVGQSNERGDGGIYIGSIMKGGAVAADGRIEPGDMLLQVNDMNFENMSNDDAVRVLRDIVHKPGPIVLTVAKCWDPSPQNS

[14] = biological target: T14, GST-MUPP1 PDZ domain 9 (Homo sapiens (Human)), O75970
T14 chain: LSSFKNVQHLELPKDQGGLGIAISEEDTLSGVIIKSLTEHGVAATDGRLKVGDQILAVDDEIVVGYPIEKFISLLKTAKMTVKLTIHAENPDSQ

[15] = biological target: T15, GST-SYNTENIN PDZ domain 1 (Homo sapiens (Human)), O00560
T15 chain: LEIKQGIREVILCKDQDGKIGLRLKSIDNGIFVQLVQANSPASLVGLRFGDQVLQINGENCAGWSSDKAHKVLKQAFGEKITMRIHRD

[16] = biological target: GST-PAR3 PDZ domain 3 (Homo sapiens (Human)), Q8TEW0
Sequence of GST-PAR3 PDZ domain 3 (Homo sapiens (Human)), Q8TEW0 (Q8TEW0 579-681): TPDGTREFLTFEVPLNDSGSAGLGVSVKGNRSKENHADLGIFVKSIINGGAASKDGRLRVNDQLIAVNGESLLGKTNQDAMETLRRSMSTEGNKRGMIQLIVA

[17] = biological target: GST-KIAA1222 PDZ domain 1 (Rattus norvegicus (Rat)), O35867
Sequence of GST-KIAA1222 PDZ domain 1 (Rattus norvegicus (Rat)), O35867 (O35867 499-598, tags or fused parts left off): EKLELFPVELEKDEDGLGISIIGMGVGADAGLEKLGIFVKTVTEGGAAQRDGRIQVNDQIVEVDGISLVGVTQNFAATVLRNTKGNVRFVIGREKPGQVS

[18] = biological target: T16, GST-MUPP1 PDZ domain 7 (Homo sapiens (Human)), O75970
T16 chain: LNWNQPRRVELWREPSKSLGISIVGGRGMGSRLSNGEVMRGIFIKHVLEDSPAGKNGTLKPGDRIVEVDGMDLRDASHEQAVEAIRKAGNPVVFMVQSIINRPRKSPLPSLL

[19] = biological target: T17, GST-KIAA0807(S) PDZ domain 1 (Homo sapiens (Human)), Q6P0Q8
T17 chain: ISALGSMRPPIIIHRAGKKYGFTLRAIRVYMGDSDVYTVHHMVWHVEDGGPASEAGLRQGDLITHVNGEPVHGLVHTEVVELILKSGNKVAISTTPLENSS

[20] = biological target: T18, GST-MINT1 PDZ domain 2 (Mus musculus (Mouse)), B2RUJ5
T18 chain: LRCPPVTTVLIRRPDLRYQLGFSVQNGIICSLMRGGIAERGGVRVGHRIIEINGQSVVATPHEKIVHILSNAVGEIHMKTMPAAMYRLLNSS

[21] = biological target: T19, GST-MUPP1 PDZ domain 11 (Homo sapiens (Human)), O75970
T19 chain: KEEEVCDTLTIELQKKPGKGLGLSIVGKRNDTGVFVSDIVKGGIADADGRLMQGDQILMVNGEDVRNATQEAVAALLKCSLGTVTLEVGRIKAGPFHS

[22] = biological target: T20, GST-MINT1 PDZ domains 1, 2, Q02410
T20 chain: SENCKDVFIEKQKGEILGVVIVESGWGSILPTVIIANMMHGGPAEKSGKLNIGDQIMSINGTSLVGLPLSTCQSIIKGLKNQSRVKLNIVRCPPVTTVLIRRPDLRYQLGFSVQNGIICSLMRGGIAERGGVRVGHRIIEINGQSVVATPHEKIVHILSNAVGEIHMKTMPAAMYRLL

[23] = biological target: GST-KIAA807 [GST: P08515]
Sequence of GST-KIAA807 [GST: P08515] (P08515 whole entry, the tested form may be a part): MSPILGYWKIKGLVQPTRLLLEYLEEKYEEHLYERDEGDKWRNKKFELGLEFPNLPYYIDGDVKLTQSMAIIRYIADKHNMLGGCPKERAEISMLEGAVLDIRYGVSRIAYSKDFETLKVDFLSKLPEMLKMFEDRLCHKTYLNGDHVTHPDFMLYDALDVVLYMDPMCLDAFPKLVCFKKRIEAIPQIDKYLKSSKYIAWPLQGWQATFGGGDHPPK

[24] = biological target: T21, GST-MUPP1 PDZ domain 2 (Homo sapiens (Human)), O75970
T21 chain: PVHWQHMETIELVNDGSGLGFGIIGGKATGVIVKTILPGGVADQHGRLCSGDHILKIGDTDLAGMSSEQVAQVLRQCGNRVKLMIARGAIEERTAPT

[25] = biological target: T22, GST-KIAA0382 PDZ domain 1 (Canis lupus familiaris (Dog) (Canis familiaris)), A0A8I3
T22 chain: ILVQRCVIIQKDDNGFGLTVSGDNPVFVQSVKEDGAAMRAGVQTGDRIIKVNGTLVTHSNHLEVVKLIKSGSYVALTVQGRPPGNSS
Further: key of the grades not given here.

Classification [1]: 2 A450 class
Classification [2]: 1 A450 class
Classification [3]: 2 A450 class
Classification [4]: 2 A450 class
Classification [5]: 1 A450 class
Binder: YSATYSELEDPGEMSPPIDL (modifications not checked) [FceRlb]

Classification [6]: 2 A450 class
Classification [7]: 1 A450 class
Classification [8]: 1 A450 class
Classification [9]: 4 A450 class
Classification [10]: 1 A450 class
Classification [11]: 4 A450 class
Classification [12]: 3 A450 class
Classification [13]: 2 A450 class
Classification [14]: 1 A450 class
Classification [15]: 2 A450 class
Classification [16]: 5 A450 class
Classification [17]: 1 A450 class
Classification [18]: 1 A450 class
Classification [19]: 4 A450 class
Classification [20]: 1 A450 class
Classification [21]: 5 A450 class
Classification [22]: 5 A450 class
Classification [23]: 3 A450 class
Classification [24]: 1 A450 class
Classification [25]: 1 A450 class
Binder: KTMPAAMFRLLTGQETPLYI (modifications not checked) [MINT-2]
